The source of these data is article PMC3999109, “Dimerization Interface of 3-Hydroxyacyl-CoA Dehydrogenase Tunes the Formation of Its Catalytic Intermediate” (PLoS ONE, 2014).

Where a chain is given by its changes, count along the chain named. Names and notes keep the numbering of the source.

Data set [1] concerns the target T1, cHAD (Caenorhabditis elegans, UniProt P34439, Y209A).
T1 construct: gene F54C8.1; C-terminal GST tag cleaved; pEXS-CG vector, E. coli BL21(DE3)
T1 sequence (P34439 1-298 Y209A): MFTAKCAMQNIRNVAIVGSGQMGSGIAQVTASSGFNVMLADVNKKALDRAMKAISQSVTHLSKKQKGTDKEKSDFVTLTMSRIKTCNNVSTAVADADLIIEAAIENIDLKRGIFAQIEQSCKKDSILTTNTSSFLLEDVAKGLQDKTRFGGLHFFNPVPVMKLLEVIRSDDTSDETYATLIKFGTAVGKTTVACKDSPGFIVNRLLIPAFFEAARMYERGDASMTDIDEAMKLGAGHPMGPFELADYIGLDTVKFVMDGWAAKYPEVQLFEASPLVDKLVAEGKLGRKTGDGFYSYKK
The data set is described as follows: Trp-NADH FRET titration, ex […] nm, em […] nm, Hill fit. The conditions noted are these: 10 mM citrate/phosphate pH 7.0, 150 mM NaCl, ambient temperature, 0.58 µM protein, 0-340 µM NADH. Format: binding.

Data set [2] concerns the target T2, cHAD (Caenorhabditis elegans, UniProt P34439).
T2 construct: gene F54C8.1; C-terminal GST tag cleaved; pEXS-CG vector, E. coli BL21(DE3)
T2 sequence (P34439 1-298): T1 sequence (P34439 1-298 Y209A) with A209Y
Briefly: difference absorption spectroscopy of the ternary charge-transfer complex, […] nm. Format: binding. The conditions noted are these: 2 mM NAD+ with 2 mM acetoacetyl-CoA, 0.2 M citrate/phosphate pH 7.0, ambient temperature, 2 mg/ml protein; abortive ternary complex.

Data set [3] concerns the molecule itself. Briefly: SEC-MALS; SEC-LS/UV/RI; WTC-030S5 column, 20 mM MES pH 6.0, 100 mM sodium chloride; 100 µg protein injected, 0.5 ml/min.
Substrate in data set [4]: CC(=O)CC(=O)SCCNC(=O)CCNC(=O)[C@H](O)C(C)(C)COP(=O)(O)OP(=O)(O)OC[C@H]1O[C@@H](n2cnc3c(N)ncnc32)[C@H](O)[C@@H]1OP(=O)(O)O
The data set is described as follows: purified protein. Format: biochemical, Caenorhabditis elegans. The following applies: 100 µM NADH (saturating), 0.1 M citrate/phosphate pH 7.0, 0.1 mM dithiothreitol, 298 K, 23 nM protein, AACoA 30-70 µM, 25.0 °C.

Data set [5] concerns the molecule itself. Briefly: cross-linking; EGS, protein:EGS 1:50, on ice 40 min; protein diluted to 2 mg/ml in 0.2 M Na2HPO4, 0.1 M citrate pH 7.0; SDS-PAGE.

For the molecule `NC(=O)C1=CN([C@@H]2O[C@H](COP(=O)(O)OP(=O)(O)OC[C@H]3O[C@@H](n4cnc5c(N)ncnc54)[C@H](O)[C@@H]3O)[C@@H](O)[C@H]2O)C=CC1` [NADH], the “Trp-NADH FRET titration, ex 270 nm, em 460 nm, Hill fit” value in data set [1] was “Wild type and Y209A mutant cHAD show exactly the same number of Hill coefficient”.

For the molecule `NC(=O)c1ccc[n+]([C@@H]2O[C@H](COP(=O)(O)OP(=O)(O)OC[C@H]3O[C@@H](n4cnc5c(N)ncnc54)[C@H](O)[C@@H]3O)[C@@H](O)[C@H]2O)c1` [NAD^+], in data set [2], the “difference absorption spectroscopy of the ternary charge-transfer complex, 412 n” value is listed as “difference spectroscopy of cHAD·NAD^+·AACoA ternary complex”.

B1: 3-hydroxyacyl-CoA dehydrogenase from C. elegans, wild type (enzyme, Caenorhabditis elegans)
chain: T1 sequence (P34439 1-298 Y209A) with A209Y
notes: 3-hydroxyacyl-CoA dehydrogenase (cHAD), Caenorhabditis elegans, WormBase WBGene00010035, GenBank CAA80153.1; N-terminal domain 9-194, loop 195-201 and C-terminal domain 202-297 described in the structure; vector pEXS-CG (derived from pET-22b(+)); also called cHAD; wild type cHAD; not shown: GST, C-terminal, cleaved
In the case of B1, in data set [3], the “stoichiometry N” value stood at 2. Further, in data set [4], the Km is 72.0 ± 13.4 µM, the Vmax was 78 µmol/min/mg, the kcat turned out to be 45 s⁻¹ and the kcat/Km came to 600000 M⁻¹ s⁻¹.

B2: 3-hydroxyacyl-CoA dehydrogenase from C. elegans, R204A/Y209A mutant (enzyme, Caenorhabditis elegans)
chain: T1 sequence (P34439 1-298 Y209A) with R204A
notes: 3-hydroxyacyl-CoA dehydrogenase (cHAD), Caenorhabditis elegans, WormBase WBGene00010035, GenBank CAA80153.1; as m1 with R204A and Y209A; Made by overlapping PCR from the wild type plasmid, ligated into pEXS-CG (BamHI, EcoRI); also called cHAD R204A/Y209A; source: E. coli BL21 (DE3), purified (same procedure as the wild type); not shown: GST, C-terminal, cleaved
Consider B2, for which, in data set [5], the binding result is recorded as “binds”. For the same molecule, in data set [4], the Michaelis constant (Km) turned out to be 115.6 ± 24.5 µM, the Vmax was found to be 18 µmol/min/mg, the catalytic constant (kcat) came to 10 s⁻¹ and the catalytic efficiency (kcat/Km) stood at 90000 M⁻¹ s⁻¹.

B3: 3-hydroxyacyl-CoA dehydrogenase from C. elegans, Y209A mutant (enzyme, Caenorhabditis elegans)
chain: T1 sequence (P34439 1-298 Y209A)
notes: 3-hydroxyacyl-CoA dehydrogenase (cHAD), Caenorhabditis elegans, WormBase WBGene00010035, GenBank CAA80153.1; as m1 with Y209A; Made by overlapping PCR from the wild type plasmid, ligated into pEXS-CG (BamHI, EcoRI); also called cHAD Y209A; source: E. coli BL21 (DE3), purified (same procedure as the wild type); not shown: GST, C-terminal, cleaved
Regarding B3, in data set [5], the binding result was “binds”. Besides, in data set [4], the Km amounted to 50.4 ± 11.0 µM, the Vmax was found to be 30 µmol/min/mg, the catalytic constant (kcat) is 17 s⁻¹ and the catalytic efficiency (kcat/Km) was 300000 M⁻¹ s⁻¹.

B4: 3-hydroxyacyl-CoA dehydrogenase from C. elegans, R204A mutant (enzyme, Caenorhabditis elegans)
chain: T1 sequence (P34439 1-298 Y209A) with R204A, A209Y
notes: 3-hydroxyacyl-CoA dehydrogenase (cHAD), Caenorhabditis elegans, WormBase WBGene00010035, GenBank CAA80153.1; as m1 with R204A; Made by overlapping PCR from the wild type plasmid, ligated into pEXS-CG (BamHI, EcoRI); also called cHAD R204A; source: E. coli BL21 (DE3), purified (same procedure as the wild type); not shown: GST, C-terminal, cleaved
Turning to B4, the binding result in data set [5] is recorded as “binds”. Further, in data set [4], the Km was found to be 83.2 ± 9.7 µM, the Vmax was determined as 48 µmol/min/mg, the turnover number (kcat) was 28 s⁻¹ and the kcat/Km turned out to be 300000 M⁻¹ s⁻¹.

Usually stoichiometry N stands for a count of units in the complex or per binding partner. One may read the Km as the concentration of substrate that gives half-maximal velocity. For orientation: Vmax means the top rate of the reaction or transport when substrate is in excess. What is called kcat is the maximal rate divided by the concentration of active sites. One may read the kcat/Km as the turnover number divided by the Michaelis constant.
